Key:
[1] = test system: EGFR-wild-type non-small cell lung cancer (NSCLC)
Source text: A group participating in the study was comprised of 132 patients with wild-type epidermal growth factor receptor (EGFR) who progressed on ≥1 platinum-based standard of care therapy and were EGFR tyrosine kinase inhibitor (TKI)-naïve. […] Data were collected at 10+ months.
Therefore, in this Example, Biomarker positive (BM+) is used interchangeably with Heregulin positive (HRG+). BM+ patients were defined as having detectable HRG mRNA by RNA-ISH (RNA in situ hybridization) as described above in Example 1.

[2] = test system: locally advanced or metastatic ER+ and/or PR+, HER2 negative breast cancer; assay: Randomized, double-blind phase 2 trial of exemestane +/- MM-121, breast cancer; format: in vivo, human
[3] = test system: advanced, platinum-resistant ovarian cancer; assay: Clinical trial, ovarian cancer: paclitaxel with or without MM-121; format: in vivo, human; conditions: for HR (PFS, treatment vs control): paclitaxel+MM-121 vs paclitaxel, data at 60 weeks
Experimental: A clinical trial was performed that was designed to allow, inter alia, determination of associations between biomarker profiles and clinical responses. Biomarker data were measured in pre-treatment biopsies and (when available) in archived tumor samples. Results pertaining to predictive biomarkers measured in pre-treatment biopsies are described herein.
Four types of assay (each set forth above) were used to assess the six primary biomarkers assessed in this study (EGFR, ErbB2, ErbB3, ErbB4, HRG and BTC):
In total, six primary biomarkers were measured using 15 assays. For the 5 chromogenic assays (qIHC and RNA-ISH), two different overall scores were used: composite score and top-10 score. Accordingly, 20 different variables were assessed at this stage. A Cox proportional hazard model was used to rank the biomarkers. This method determines if PFS varies with biomarker values differently in the treatment arm relative to the control arm. A P-value cutoff of 0.4 was used to determine which biomarkers would be prioritized for subsequent bivariate analyses.
Based on these two thresholds, a biomarker profile positive (BM+) subpopulation is defined for subsequent analyses as: (ErbB2 levels ≤log10 5.1) AND (HRG score ≥1) (“ErbB2 low” AND “HRG positive”). Accordingly, a biomarker profile negative (BM−) subpopulation is defined as (ErbB2 levels >log10 5.1) OR (HRG score <1) This definition results in a BM+prevalence of 34% in the clinical trial population.
In FIG. 8G (progression free survival at 10+ months) and FIG. 8H (overall survival at 10+ months), the treatment arm is represented by a blue line and the control arm is represented by a black line.

[4] = target: ErbB3 (Homo sapiens, UniProt P21860); assay: Pre-clinical data and computational modeling: MM-121 potency versus ErbB2 level; conditions: when ErbB2 levels rise above about 100,000 to about 200,000 receptors per cell
[5] = BM+ (heregulin+) patients, FIG. 11
[6] = group ErbB2 < 5.1 (qIHC) & HRG > -5

C#Cc1cccc(Nc2ncnc3cc(OCCOC)c(OCCOC)cc23)c1 [erlotinib]
best overall response: complete response (CR) [1, 5]: none | best overall response: partial response (PR) [1, 5]: 6.7% | best overall response: progressive disease (PD) [1, 5]: 53.3% | PFS of BM- (heregulin-) patients compared with BM+ (heregulin+) patients ([1]; patients treated with erlotinib alone, FIG. 12C): much longer PFS

C=C1C[C@@H]2[C@H](CC[C@]3(C)C(=O)CC[C@@H]23)[C@@]2(C)C=CC(=O)C=C12 [exemestane, 6-methylenandrosta-1,4-diene-3,17-dione, reference compound]
PFS of BM- (heregulin-) patients compared with BM+ (heregulin+) patients ([2]; patients treated with exemestane alone, FIG. 10E): much longer PFS

CC(=O)O[C@H]1C(=O)[C@@]2(C)[C@H]([C@H](OC(=O)c3ccccc3)[C@]3(O)C[C@H](OC(=O)[C@H](O)[C@@H](NC(=O)c4ccccc4)c4ccccc4)C(C)=C1C3(C)C)[C@]1(OC(C)=O)CO[C@@H]1C[C@@H]2O [paclitaxel, Paclitaxel, reference compound]
PFS of BM- (heregulin-) patients compared with BM+ (heregulin+) patients ([3]; patients treated with paclitaxel alone, FIG. 8I): much longer PFS

B1: MM-121: anti-ErbB3 monoclonal antibody having VH and VL sequences as shown in SEQ ID NOs: 1 and 2 (antibody, V domains shown)
VH: EVQLLESGGGLVQPGGSLRLSCAASGFTFSHYVMAWVRQAPGKGLEWVSSISSSGGWTLYADSVKGRFTISRDNSKNTLYLQMNSLRAEDTAVYYCTRGLKMATIFDYWGQGTLVTVSS
VL: QSALTQPASVSGSPGQSITISCTGTSSDVGSYNVVSWYQQHPGKAPKLIIYEVSQRPSGVSNRFSGSKSGNTASLTISGLQTEDEADYYCCSYAGSSIFVIFGGGTKVTVL
estimated HR in the BM+ group, sensitivity analysis ([2]; Cox model with additive terms for treatment, biomarker groups and clinical covariates): 0.38 | HR, BM population ([2]; MM-121+exemestane vs exemestane, no selection, N=115): 0.75 | HR, BM negative ([2]; group ErbB2 < 5.1 (HCT)): 3.00 | HR, BM population ([2]; group ErbB2 < 5.1 (HCT)): 0.82 | HR, BM positive ([2]; group ErbB2 < 5.1 (HCT)): 0.62 | HR, BM population ([2]; group ErbB2 < 5.1 (HCT) & HRG > -5, 55 patients): 0.66 | HR, BM positive ([2]; group ErbB2 < 5.1 (HCT) & HRG > -5, PFS at about 60 weeks, N=17): 0.32 | HR, BM negative ([2]; group ErbB2 < 5.1 (HCT) & HRG > -5, PFS at about 60 weeks, N=38): 0.89 | HR, BM negative ([2]; group ErbB2 < 5.1 (qIHC)): 3.00 | HR, BM population ([2]; group ErbB2 < 5.1 (qIHC)): 1.16 | HR, BM positive ([2]; group ErbB2 < 5.1 (qIHC)): 0.84 | HR, BM negative [2, 6]: 1.30 | HR, BM population [2, 6]: 0.86 | HR, BM positive [2, 6]: 0.32 | HR, BM negative ([2]; group HRG > -5): 0.99 | HR, BM positive ([2]; group HRG > -5): 0.35 | HR, BM population ([2]; group HRG > -5 (RT-PCR), all patients with this biomarker): 0.68 | HR (trt:ctrl) ([3]; BM+ (HER2 low & HRG+), subgroup ErbB4 score 0): 0.13 | HR (trt:ctrl) ([3]; BM+, subgroup ErbB4 score >=1): 0.65 | HR (trt:ctrl) ([3]; BM- (HER2 low & HRG+ not met), subgroup ErbB4 score 0): 1.05 | HR (trt:ctrl) ([3]; BM-, subgroup ErbB3 score >=2): 0.86 | cumulative HR ([3]; all patients with BM measurements, prevalence=100%): ≈ 1 | HR (PFS, treatment vs control) ([3]; BM+ subpopulation (ErbB2 <=log10 5.1 AND HRG score >=1)): 0.37 | HR (PFS, treatment vs control) ([3]; BM- subpopulation (ErbB2 >log10 5.1 OR HRG score <1)): 1.54 | potency as a function of ErbB2 level [4]: loses potency
